Fewer inactive variants are shown than the library holds.
B1: TPR 5TU (parent)
chain: GGAUCUUCUCGAUCUAACAAAAAAGACAAAUCUGCCACAAAGCUUGAGAGCAUCUUCGGAUGCAGAGGCGGCAGCCUUCGGUGGCGCGAUAGCGCCAACGUUCUCAACUAUGACACGCAAAACGCGUGCUCCGUUGAAUGGAGUUUAUCAUG

Variants of: B1
Experiment: polymerase ribozyme fitness, log enrichment relative to wild type (log ratio); higher = more active; in vitro selection for triplet polymerase activity
Method in brief: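 One round of in vitro selection, in triplicate, was applied to PCR-built, transcribed mutant libraries of each subunit of a heterodimeric triplet polymerase ribozyme. The steps were annealing with a biotinylated primer, partner subunit and triplets, incubation frozen at −7 °C, gel excision of extended constructs, streptavidin-bead capture and RT-PCR. Fitness is the logarithm, base 2, of genotype enrichment over wild-type enrichment from inverse-variance-weighted replicate averages of Illumina-sequenced inputs and outputs, keeping genotypes with ≥10 input reads and ≥1 read per output.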

Row | Variant | polymerase ribozyme fitness (log ratio)
1 | G94C A150G | -1.6
2 | G86U C99U C103G C131G | ≤ -4.2
3 | A91G A147U | -1.52
4 | C87U G92U A97U C99G | ≤ -4.2
5 | A91U A147C | ≤ -4.2
6 | C93G C105U A137G | -4.06
7 | U90C U145G | ≤ -4.2
8 | C93U A119U A121C | -1.6
9 | C85U G124A G141C | -0.515
10 | G92C C123U | -2.47
11 | C87U A120C G152U | -3.33
12 | G86A C93G C99G U146A | -3.32
13 | C93A U135C | -3.56
14 | G86U C116G | -1.04
15 | G86U C116U | -1.03
16 | C85U C114A | -3.52
17 | A91U U111G U127C | ≤ -4.2
18 | G92A A106C | -3.04
19 | U90A A106C G128A | ≤ -4.2
20 | G88A A97G U111G | ≤ -4.2
21 | G94C A138G G141A G143A | ≤ -4.2

Row | Variant | polymerase ribozyme fitness (log ratio)
22 | A89G C95A | -2.08
23 | C87U C125U | -2.13
24 | C87U C125G | -1.53
25 | G88U C99A U146C | ≤ -4.2
26 | G94A G136A | -0.0776
27 | G94A G136U | -2.56
28 | C85U U90C C103A | ≤ -4.2
29 | G92C A119G | 0.0407
30 | A91G C96U U101C U144G | -2.18
31 | G88A G94U U146C | -4.14
32 | A89C C131A | -3.23
33 | C87U G136U | -2.59
34 | G88C C118G G140A | ≤ -4.2
35 | C93U C125U U151C G152A | -3.06
36 | G94A A115U C125U C132U A147U | ≤ -4.2
37 | C93G A121C | -3.39
38 | C93A G128C C132G A138G U148G | ≤ -4.2
39 | G92C C108G G112C C123A G136C A137C A142G | ≤ -4.2
40 | G92U C149U | -1.29
41 | C85U C93U | -1.93
42 | C85U C93A | -2.72

Row | Variant | polymerase ribozyme fitness (log ratio)
43 | G94A G124A U146A | -1.09
44 | C85U G140U U146C | -2.87
45 | G94A C132G | -3.64
46 | C93A C99A | ≤ -4.2
47 | G88A C96U C108G | ≤ -4.2
48 | G94A C116U A122U | -0.787
49 | G92U A138U | -4.2
50 | G94A A121U C132G U146A A150G | ≤ -4.2
51 | C85U G86U C105U U135A A150C | ≤ -4.2
52 | A91G A106G A150U | -0.616
53 | G92U C103G | -3.77
54 | G92U G141C U146A | -0.994
55 | C93A A122U | -2.45
56 | G86U A97U | -1.74
57 | G86U G152U | ≤ -4.2
58 | G92C U127G | -3.67
59 | C87A U90C C105U | -3.59
60 | C85U C96A | -0.931
61 | G92U C99G | -1.57
62 | C87A U135C | ≤ -4.2
63 | C87G G94C A98G | -3.08

Row | Variant | polymerase ribozyme fitness (log ratio)
64 | G92A U145G | -2.54
65 | C93A G100U U102G G117U A138C | ≤ -4.2
66 | C87A G88U | ≤ -4.2
67 | C93U G136U | -3.31
68 | A89C G92U C96A A106G A107U U139A | ≤ -4.2
69 | C85U C123U U127C | -1.83
70 | C87A A119G A137G | ≤ -4.2
71 | C87A A98U | -4.12
72 | C87A G141C | ≤ -4.2
73 | C85U G94U | 0.0431
74 | G88A C93G C96A A110G C123G | ≤ -4.2
75 | G92U A147U | 0.301
76 | A89C C93U C116U G128A | ≤ -4.2
77 | A89G A98G C99G | -2.3
78 | A91C A137C A150C U151G | ≤ -4.2
79 | U90A C95A | ≤ -4.2
80 | A91U C125A | -3.87
81 | G94A G143C | -2.41
82 | C93U U104A | -1.88
83 | C87U A91U C96U | ≤ -4.2
84 | A89C U127A | -4.16

Source: the RNAGym collection of RNA variant scans (doi:10.1073/pnas.2313332121)
